Experimental data reported in FireProtDB (doi:10.1074/jbc.272.30.18686).

Conditions: Escherichia coli (strain K12); pH 3.2; Thermal; CD; glycine-HCl 10 mM; reversible: yes; whole UniProt chain shown

B1: Ribonuclease HI wild type, P0A7Y4 (protein)
chain: MLKQVEIFTDGSCLGNPGPGGYGAILRYRGREKTFSAGYTRTTNNRMELMAAIVALEALKEHCEVILSTDSQYVRQGITQWIHNWKKRGWKTADKKPVKNVDLWQRLDAALGQHQIKWEWVKGHAGHPENERCDELARAAAMNPTLEDTGYQVEV
  Tm: 53 °C
  unfolding enthalpy (van 't Hoff): 99.2 kcal/mol
